B1: mouse WT sNASP (somatic nuclear autoantigenic sperm protein), B6 allele (natural protein)
chain: MATESTAAAAIAAELVSADKIEDAPAPSTSADKMESLDVDSEAKKLLGLGQKHLVMGDIPAAVNAFQEAASLLGKKYGETANECGEAFFFYGKSLLELARMENGVLGNALEGVHVEEEEGEKTEDESLVENNDNVDETEGSEEEDRENDKAEETPNESVLEKKSLQENEEEEIGNLELAWDMLDLAKIIFKRQETKEAQLYAAQAHLKLGEVSVESENYIQAVEEFQACLSLQEQYLEAHDRLLAETHYQLGLAYGYNSQYDEAVAQFGKSIDVIEKRMAVLHEQMKEAEGSFTEYEKEIEELKELLPEIREKIEDAKESQRSGNVAELALKATLVESSTSGFTPSGAGASVSMIASRKPTDGASSSNCVTDISHLVRKKRKPEEESPRKDDAKKAKQEPEVNGGSGDAVSSGKEVSENMEAEAENQAESQTAEGTVESAATIKSTAC
modifications: Somatic isoform of 448 aa = 773-aa tNASP entry lacking 325 residues (internal testis-specific exon). Junction 137/463 set by homology to human sNASP and the printed length, not printed in the paper. …

Legend:
[1] = molecular target: mouse histone H4 (mouse, UniProt P62806 1-103); test: BLI; Octet K2, 30 C; sNASP WT or variant immobilised on aminopropylsilane (APS) biosensors, histones in assay buffer at various concentrations (62.5 to 1,000 nM shown for H4), association 240 s; n = 4; details: both partners purified
[2] = molecular target: B1; test: as above; details: both partners purified

Binder	Kd [1]	kon [1]	Kd [2]	kon [2]
B1	40.7 nM	1990 M⁻¹ s⁻¹		
mouse histone H1a (natural protein, UniProt P43275 1-213, looked up, mouse histone H1a (H1.1); source: bought: Lifespan Biosciences) MSETAPVAQAASTATEKPAAAKKTKKPAKAAAPRKKPAGPSVSELIVQAVSSSKERSGVSLAALKKSLAAAGYDVEKNNSRIKLGLKSLVNKGTLVQTKGTGAAGSFKLNKKAESKAITTKVSVKAKASGAAKKPKKTAGAAAKKTVKTPKKPKKPAVSKKTSKSPKKPKVVKAKKVAKSPAKAKAVKPKASKAKVTKPKTPAKPKKAAPKKK			387 nM	10100 M⁻¹ s⁻¹
